Reference: patent US20250313631A1 (HUMMINGBIRD BIOSCIENCE PTE, published 2025)

Molecular target: T1, mouse VISTA expressed on cells (mouse, UniProt Q9D659 33-308)
T1 construct: whole, on cells; also called murine VISTA on transfected cells; VISTA on mouse CD11b+ myeloid cells
T1 sequence (looked up): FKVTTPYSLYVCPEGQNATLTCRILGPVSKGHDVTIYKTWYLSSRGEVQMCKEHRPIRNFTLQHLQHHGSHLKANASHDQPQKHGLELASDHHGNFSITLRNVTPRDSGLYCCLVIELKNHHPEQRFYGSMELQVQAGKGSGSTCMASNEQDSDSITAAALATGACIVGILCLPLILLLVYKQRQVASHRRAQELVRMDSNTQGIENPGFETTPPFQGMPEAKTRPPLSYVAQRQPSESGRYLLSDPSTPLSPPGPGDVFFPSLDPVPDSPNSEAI
Assay: flow cytometry on cells transfected with murine VISTA

B1: anti-VISTA clone 13D5p IgG1 (antibody, V domains shown)
VH: QVQLQQSGAELVRPGTSVKISCKASGYTFTNYWLGWVKQRPGHGLEWIGDIYPGGGYTNYNEKFKGKATLTADTSSSTAYMQLSSLTSEDSAVYFCARGGYYYGSSWYFDVWGAGTTVTVSS
VL: DVLMTQTPLSLPVSLGDQASISCRSSQSIVHSNGNTYLEWYLQKPGQSPKLLIYKVSNRFSGVPDRFSGSGSGTDFTLKISRVEAEDLGVYYCFQGSHVPPTFGGGTKLEIKR
- binding result: binds
